Results published in US20160010147, “ENZYME STALLING METHOD” (OXFORD NANOPORE TECHNOLOGIES LIMITED, published 2016).

Assays:
[1] = target: T1, T4 Dda-E94C/A360C helicase (Enterobacteria phage T4, UniProt P32270 SEQ:1-439, E94C/A360C, then (ΔM1)G1G2); experiment: EMSA; one helicase bound from 238 nM, two from 475 nM up to 3800 nM; 100 nM DNA; conditions: two 10T ssDNA regions
T1 sequence: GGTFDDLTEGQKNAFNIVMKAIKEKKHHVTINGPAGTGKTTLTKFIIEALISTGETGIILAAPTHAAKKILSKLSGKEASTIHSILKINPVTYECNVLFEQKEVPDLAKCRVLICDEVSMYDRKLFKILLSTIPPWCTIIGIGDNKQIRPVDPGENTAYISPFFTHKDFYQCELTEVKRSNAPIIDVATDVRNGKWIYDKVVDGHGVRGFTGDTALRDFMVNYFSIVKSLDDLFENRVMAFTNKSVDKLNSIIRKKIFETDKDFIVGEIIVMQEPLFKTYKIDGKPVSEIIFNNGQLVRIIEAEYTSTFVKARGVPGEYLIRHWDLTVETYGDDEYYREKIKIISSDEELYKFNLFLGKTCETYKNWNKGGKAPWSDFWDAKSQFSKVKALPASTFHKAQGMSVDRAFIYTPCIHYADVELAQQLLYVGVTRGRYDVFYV
Description: T4 Dda E94C/A360C was buffer exchanged into 25 mM phosphate pH 8.0, 151.5 mM KCl and serially diluted. The helicase and DNA were then mixed (1:1, v/v) with the DNA construct samples 9 and 10 described above (final concentration DNA=100 nM, helicase concentrations investigated=3800 nM, 1900 nM, 950 nM, 475 nM, 238 nM, 0 nM). The DNA and enzyme volumes were then incubated at ambient temperature for 1.5 hours. Dye free loading buffer (5×, 7.5 μL) was added to each sample (30 μL). Each sample (37.5 μL) was then loaded onto 4-20% TBE gel and run at 160 V for 90 minutes. The gel was then stained using SYBR.

[2] = target: T1, T4 Dda-E94C/A360C helicase; experiment: EMSA; one enzyme bound only at 312.5-5000 nM; 1 uM DNA; 25 mM phosphate pH 8.0, 151.5 mM KCl; conditions: 5' ssDNA overhang with duplex
Description: (§1) DNA constructs (1 μM or 100 nM final concentration) detailed below in Table 12 were incubated in appropriate buffer with serially diluted T4 Dda-E94C/A360C. The samples were then loaded on 4-20% TBE gels and run at 160 V for 90 minutes. The gels containing entries 1-6 were then stained using SYBR. […] The length of the region labelled 1 is varied from 2 to 50 to optimise conditions so that it is possible to control the number of T4 Dda-E94C/A360C helicases which can bind to the DNA,

[3] = target: T1, T4 Dda-E94C/A360C helicase; experiment: EMSA; one helicase stalled in at least one buffer with ATP/MgCl2; conditions: 50 nt ssDNA overhang with duplex
Description: (§2) The annealed DNA complexes (sequences tested are shown in table 11 below) were mixed in a ratio of (1:1, v/v) with T4 Dda-E94C/A360C in 25 mM phosphate pH 8.0, 200 mM KCl giving final concentrations of T4 Dda-E94C/A360C (2000 nM) and DNA (100 nM). The helicase was allowed to bind to the DNA for 2 hours at ambient temperature. Capture strand (SEQ ID NO: 37, 20 μM) was added to each sample to bind any unbound enzyme and the samples incubated at ambient temperature for 30 mins. Buffer was added to the samples (DNA construct from table 11=50 nM, capture DNA (SEQ ID NO: 37)=10 μM and T4 Dda-E94C/A360C=1000 nM) and they were incubated at ambient temperature for one hour (either Buffer 1=25 mM phosphate pH 8.0, 200 mM KCl, 20 mM MgCl2, 10 mM ATP or Buffer 2=25 mM phosphate pH 8.0, 1 M KCl, 25 mM potassium ferricyanide(III), 75 mM potassium ferrocyanide, 20 mM MgCl2, 10 mM ATP). Loading buffer (25 mM Phosphate pH8.0, 151.5 mM KCl, 25% Glycerol, 125 mM EDTA) is added to each sample to quench the helicase activity. The samples were loaded onto 4-20% TBE gel and the gel run at 160 V for 1.5 hours. The Gel was then stained with SYBR gold in order to observe the DNA bands.

[4] = target: T1, T4 Dda-E94C/A360C helicase; experiment: EMSA; up to six enzymes bound at 5000 nM; 1 uM DNA; conditions: 5' ssDNA overhang with duplex
Description: as §1

[5] = target: T1, T4 Dda-E94C/A360C helicase; experiment: EMSA; up to five helicases bound; one, faintly two, stalled after ATP/MgCl2; conditions: 50 nt ssDNA overhang with duplex
Description: as §2

[6] = target: T1, T4 Dda-E94C/A360C helicase; experiment: EMSA; two enzymes bound at 625-5000 nM, one at 312.5 nM; 1 uM DNA; conditions: 5' ssDNA overhang with duplex
Description: as §1

[7] = target: T1, T4 Dda-E94C/A360C helicase; experiment: EMSA; unbound DNA only up to 3750 nM; 1 uM DNA; conditions: 5' ssDNA overhang with duplex
Description: as §1

[8] = target: T1, T4 Dda-E94C/A360C helicase; experiment: EMSA; up to two enzymes bound; one faint at 169 nM; 100 nM DNA; conditions: 5' ssDNA overhang with duplex
Description: as §1

[9] = target: T1, T4 Dda-E94C/A360C helicase; experiment: EMSA; up to two enzymes bound; unbound only at 169 nM; 100 nM DNA; conditions: 5' ssDNA overhang with duplex
Description: as §1

[10] = target: T1, T4 Dda-E94C/A360C helicase; experiment: EMSA; up to five helicases bound; one helicase stalled after ATP/MgCl2; conditions: 50 nt ssDNA overhang with duplex
Description: as §2

[11] = target: T1, T4 Dda-E94C/A360C helicase; experiment: EMSA; up to five helicases bound; ATP/MgCl2 gives strand displacement; conditions: 50 nt ssDNA overhang with duplex
Description: as §2

B1: Table 16 construct 9 (non-forked) (mixed)
DNA 1: TTTTTTTTTTTTTTTTTTTTGGTTGTTTCTGTTGGTGCTGATATTGCGCCATCAGATTGTGTTTGTTAGTCGCT
DNA 2: GCAATATCAGCACCAACAGAAACAACC
DNA 3: AGCGACTAACAAACACAATCTGATGGC
modifications: 25 SpC3 at 5' end; 2 iSp18 after each SEQ 37; 4 nitroindoles between SEQ 10 and SEQ 41
binding result ([1]; two duplexes): binds

B2: Table 16 construct 10 (forked) (mixed)
DNA 1: B1 DNA 1
DNA 2: GCAATATCAGCACCAACAGAAACAACCT
DNA 3: AGCGACTAACAAACACAATCTGATGGC
modifications: 25 SpC3 at 5' end; 2 iSp18 after each SEQ 37; 4 nitroindoles between SEQ 10 and SEQ 41; 6 iSp18 at 3' end of SEQ 12
binding result ([1]; forked duplex): binds

B3: Table 12 construct 1 (10T region) (mixed)
DNA 1: TTTTTTTTTTTCGCTGCTCCACAGGTCTCAGCTTGAGCAGCGA
DNA 2: TCGCTGCTCAAGCTGAGACCTGTGGAGCAGCGA
modifications: 5 iSpC3 at 5' end; 4 iSpC3 between SEQ 37 and SEQ 36
binding result [2]: binds

B4: Table 11 construct 6 (2 iSp18) (mixed)
DNA 1: TTTTTTTTTTTTTTTTTTTTTTTTTTTTTTTTTTTTTTTTTTTTTTTTTTTCGCTGCTCCACAGGTCTCAGCTTGAGCAGCGA
DNA 2: B3 DNA 2
modifications: 2 iSp18 between SEQ 9 and SEQ 36
binding result [3]: binds

B5: Table 12 construct 3 (50T region) (mixed)
DNA 1: B4 DNA 1
DNA 2: B3 DNA 2
modifications: 5 iSpC3 at 5' end; 4 iSpC3 between SEQ 9 and SEQ 36
binding result [4]: binds

B6: Table 11 construct 9 (5 iSp18) (mixed)
DNA 1: B4 DNA 1
DNA 2: B3 DNA 2
modifications: 5 iSp18 between SEQ 9 and SEQ 36
binding result [5]: binds

B7: Table 11 construct 8 (4 iSp18) (mixed)
DNA 1: B4 DNA 1
DNA 2: B3 DNA 2
modifications: 4 iSp18 between SEQ 9 and SEQ 36
binding result [5]: binds

B8: Table 11 construct 5 (1 iSp18) (mixed)
DNA 1: B4 DNA 1
DNA 2: B3 DNA 2
modifications: 1 iSp18 between SEQ 9 and SEQ 36
binding result [3]: binds

B9: Table 12 construct 2 (20T region) (mixed)
DNA 1: TTTTTTTTTTTTTTTTTTTTTCGCTGCTCCACAGGTCTCAGCTTGAGCAGCGA
DNA 2: B3 DNA 2
modifications: 5 iSpC3 at 5' end; 4 iSpC3 between SEQ 38 and SEQ 36
binding result [6]: binds

B10: Table 11 construct 4 (12 iSpC3) (mixed)
DNA 1: B4 DNA 1
DNA 2: B3 DNA 2
modifications: 12 iSpC3 between SEQ 9 and SEQ 36
binding result [3]: binds

B11: Table 12 construct 4 (2T region) (mixed)
DNA 1: TTTCGCTGCTCCACAGGTCTCAGCTTGAGCAGCGA
DNA 2: B3 DNA 2
modifications: 5 iSpC3 at 5' end; 4 iSpC3 between TT and SEQ 36
binding result [7]: no binding

B12: Table 12 construct 7 (16T region) (mixed)
DNA 1: TTTTTTTTTTTTTTTTTCGCTGCTCCACAGGTCTCAGCTTGAGCAGCGA
DNA 2: B3 DNA 2
modifications: 5 iSpC3 at 5' end; 4 iSp18 between SEQ 39 and SEQ 36
binding result [8]: binds

B13: Table 11 construct 2 (4 iSpC3) (mixed)
DNA 1: B4 DNA 1
DNA 2: B3 DNA 2
modifications: 4 iSpC3 between SEQ 9 and SEQ 36
binding result [3]: binds

B14: Table 12 construct 8 (18T region) (mixed)
DNA 1: TTTTTTTTTTTTTTTTTTTCGCTGCTCCACAGGTCTCAGCTTGAGCAGCGA
DNA 2: B3 DNA 2
modifications: 5 iSpC3 at 5' end; 4 iSp18 between SEQ 40 and SEQ 36
binding result [9]: binds

B15: Table 12 construct 5 (4T region) (mixed)
DNA 1: TTTTTCGCTGCTCCACAGGTCTCAGCTTGAGCAGCGA
DNA 2: B3 DNA 2
modifications: 5 iSpC3 at 5' end; 4 iSpC3 between T4 and SEQ 36
binding result [7]: no binding

B16: Table 11 construct 3 (8 iSpC3) (mixed)
DNA 1: B4 DNA 1
DNA 2: B3 DNA 2
modifications: 8 iSpC3 between SEQ 9 and SEQ 36
binding result [3]: binds

B17: Table 11 construct 7 (3 iSp18) (mixed)
DNA 1: B4 DNA 1
DNA 2: B3 DNA 2
modifications: 3 iSp18 between SEQ 9 and SEQ 36
binding result [10]: binds

B18: Table 11 construct 1 (no spacers) (mixed)
DNA 1: B4 DNA 1
DNA 2: B3 DNA 2
binding result [11]: binds
